Measurements: publication PMC6805484, “The RNA-binding ubiquitin ligase MKRN1 functions in ribosome-associated quality control of poly(A) translation”

Molecular target: His-MKRN1 wt;His-PABPC1 (human (Homo sapiens);human (Homo …, UniProt Q9UHC7;P11940 1-482;1-636, |))
Assay: pull-down; PABPC1 strongly increases MKRN1 recovery; Binding: 50 mM Tris-HCl pH 7.4, 500 mM KCl, 12.5 mM MgCl2, 1% Triton X-100, 1 h, 4 °C; wash: 200 mM NaCl, 10 mM MgCl2, 50 mM HEPES pH 7.4, 0.5% Igepal CA630, 1% Triton X-100
Settings: protein: recombinant;recombinant; tags: N-His6;N-His6; copies: 1;1; label: 3' biotin

His-MKRN1 wt;His-PABPC1 (human (Homo sapiens);human, sequence (Q9UHC7 whole entry, chain 1 of 2): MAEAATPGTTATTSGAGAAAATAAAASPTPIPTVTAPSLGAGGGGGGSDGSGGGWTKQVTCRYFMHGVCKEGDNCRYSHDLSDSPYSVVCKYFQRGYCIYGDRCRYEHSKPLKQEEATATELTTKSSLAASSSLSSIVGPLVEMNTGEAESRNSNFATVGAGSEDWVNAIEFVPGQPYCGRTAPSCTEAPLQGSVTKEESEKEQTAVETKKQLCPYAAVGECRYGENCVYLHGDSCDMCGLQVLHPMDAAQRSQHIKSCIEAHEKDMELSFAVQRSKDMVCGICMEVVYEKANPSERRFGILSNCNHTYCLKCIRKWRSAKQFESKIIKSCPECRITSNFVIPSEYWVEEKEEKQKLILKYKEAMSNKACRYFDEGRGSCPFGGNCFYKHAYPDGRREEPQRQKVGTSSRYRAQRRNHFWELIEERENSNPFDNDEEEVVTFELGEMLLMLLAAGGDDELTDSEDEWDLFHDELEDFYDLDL
His-MKRN1 wt;His-PABPC1 (human (Homo sapiens);human, sequence (P11940 whole entry, chain 2 of 2): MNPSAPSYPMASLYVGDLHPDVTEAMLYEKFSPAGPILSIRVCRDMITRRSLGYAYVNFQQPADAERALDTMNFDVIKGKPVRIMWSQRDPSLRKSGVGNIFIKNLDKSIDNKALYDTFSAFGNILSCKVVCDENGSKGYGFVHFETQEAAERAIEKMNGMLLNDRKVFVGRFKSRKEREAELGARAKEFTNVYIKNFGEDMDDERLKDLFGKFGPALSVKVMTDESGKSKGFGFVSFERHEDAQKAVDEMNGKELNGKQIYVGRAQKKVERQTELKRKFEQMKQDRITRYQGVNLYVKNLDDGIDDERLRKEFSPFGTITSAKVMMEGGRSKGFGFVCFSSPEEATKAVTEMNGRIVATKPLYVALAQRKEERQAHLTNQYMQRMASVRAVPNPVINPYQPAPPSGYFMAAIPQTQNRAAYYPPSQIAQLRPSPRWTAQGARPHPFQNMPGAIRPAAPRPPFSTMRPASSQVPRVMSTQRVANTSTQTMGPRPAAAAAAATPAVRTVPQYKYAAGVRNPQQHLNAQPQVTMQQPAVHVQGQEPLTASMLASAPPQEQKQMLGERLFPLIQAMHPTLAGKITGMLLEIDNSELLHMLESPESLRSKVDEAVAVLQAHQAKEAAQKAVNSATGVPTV

GGAAAUAAACUGUAGAGUUCCAAAAAAAAAAAAAAAAAAAAA (ssRNA) [A20 RNA (SRSF4 3' UTR end + A20)]
binding result: binds
